From US20210403527A1 (Regeneron, published 2021)
One block for each binder: values may come before it.

Assays:
Test in all cases: cell-based or functional assay
[1] = molecular target: HLA-A2/NY-ESO-1 (157-165) complex on cells (human)
[2] = molecular target: HLA-A2/NY-ESO-1 (157-165) complex on cells (human); remark: listed apart in the source
[3] = molecular target: single chain HLA-A2 presenting an NY-ESO-1 (157-165) peptide, overexpressed on IM9 cells

B2: composite TCR 001 (human variable domains, mouse constant domains) (TCR, V domains shown)
V domain 1: DAKTTQPNSMESNEEEPVHLPCNHSTISGTDYIHWYRQLPSQGPEYVIHGLTSNVNNRMASLAIAEDRKSSTLILHRATLRDAAVYYCILRPDSWGKFQFGAGTQVVVTP
V domain 2: NAGVTQTPKFRILKIGQSMTLQCAQDMNHNYMYWYRQDPGMGLKLIYYSVGAGITDKGEVPNGYNVSRSTTEYFPLRLELAAPSQTSVYFCASSYSGGSPLHFGNGTRLTVTE
- percent cytotoxicity (calcein release), IM-9 target cells, T cell:target cell ratio 0.78, Mean [2]: 8.3%
- percent cytotoxicity (calcein release), IM-9 target cells, T cell:target cell ratio 1.56, Mean [2]: 16.2%
- percent cytotoxicity (calcein release), IM-9 target cells, T cell:target cell ratio 3.125, Mean [2]: 28.9%
- percent cytotoxicity (calcein release), IM-9 target cells, T cell:target cell ratio 6.25, Mean [2]: 44.4%
- percent cytotoxicity (calcein release), IM-9 target cells, T cell:target cell ratio 12.5, Mean [2]: 55.6%
- percent cytotoxicity (calcein release), IM-9 target cells, T cell:target cell ratio 25, Mean [2]: 65.4%
- percent cytotoxicity (calcein release), IM-9 target cells, T cell:target cell ratio 50, Mean [2]: 72.6%
- percent cytotoxicity (calcein release), IM-9++ target cells, T cell:target cell ratio 0.78, Mean [3]: 13.3%
- percent cytotoxicity (calcein release), IM-9++ target cells, T cell:target cell ratio 1.56, Mean [3]: 25.6%
- percent cytotoxicity (calcein release), IM-9++ target cells, T cell:target cell ratio 3.125, Mean [3]: 43.6%
- percent cytotoxicity (calcein release), IM-9++ target cells, T cell:target cell ratio 6.25, Mean [3]: 57.3%
- percent cytotoxicity (calcein release), IM-9++ target cells, T cell:target cell ratio 12.5, Mean [3]: 65.9%
- percent cytotoxicity (calcein release), IM-9++ target cells, T cell:target cell ratio 25, Mean [3]: 68.7%
- percent cytotoxicity (calcein release), IM-9++ target cells, T cell:target cell ratio 50, Mean [3]: 70%

B3: TCR001 (TCR, V domains shown)
V domain 1: DAKTTQPNSMESNEEEPVHLPCNHSTISGTDYIHWYRQLPSQGPEYVIHGLTSNVNNRMASLAIAEDRKSSTLILHRATLRDAAVYYCILRPDSWGKFQFGAGTQVVVTP
V domain 2: NAGVTQTPKFRILKIGQSMTLQCAQDMNHNYMYWYRQDPGMGLKLIYYSVGAGITDKGEVPNGYNVSRSTTEYFPLRLELAAPSQTSVYFCASSYSGGSPLHFGNGTRLTVT
- Signal to Noise (S/N) ratio (RLU to peptide pulsed APCs divided by RLU to non-pulsed APCs), AP-1 luciferase reporter T cells [1]: 25.4 ratio

Now from value to binder:

- Signal to Noise (S/N) ratio (RLU to peptide pulsed APCs divided by RLU to non-pulsed APCs), AP-1 luciferase reporter T cells [1]: 11.2 ratio
B1: TCR063 (TCR, V domains shown)
V domain 1: QKEVEQNSGPLSVPEGAIASLNCTYSDRGSQSFFWYRQYSGKSPELIMSIYSNGDKEDGRFTAQLNKASQYVSLLIRDSQPSDSATYLCAVNILASGGSYIPTFGRGTSLIVHP
V domain 2: ETGVTQTPRHLVMGMTNKKSLKCEQHLGHNAMYWYKQSAKKPLELMFVYNFKEQTENNSVPSRFSPECPNSSHLFLHLHTLQPEDSALYLCASSHGTGYNYGYTFGSGTRLTVV

- Signal to Noise (S/N) ratio (RLU to peptide pulsed APCs divided by RLU to non-pulsed APCs), AP-1 luciferase reporter T cells [1]: 15.5 ratio
B4: TCR050 (TCR, V domains shown)
V domain 1: DAKTTQPNSMESNEEEPVHLPCNHSTISGTDYIHWYRQLPSQGPEYVIHGLTSNVNNRMASLAIAEDRKSSTLILHRATLRDAAVYYCILREGNNDMRFGAGTRLTVKP
V domain 2: NAGVTQTPKFRILKIGQSMTLQCAQDMNHNYMYWYRQDPGMGLKLIYYSVGAGITDKGEVPNGYNVSRSTTEYFPLRLELAAPSQTSVYFCASSWTDNQPQHFGDGTRLSIL

- Signal to Noise (S/N) ratio (RLU to peptide pulsed APCs divided by RLU to non-pulsed APCs), AP-1 luciferase reporter T cells [1]: 5.1 ratio
B5: TCR188 (TCR, V domains shown)
V domain 1: DAKTTQPNSMESNEEEPVHLPCNHSTISGTDYIHWYRQLPSQGPEYVIHGLTSNVNNRMASLAIAEDRKSSTLILHRATLRDAAVYYCILNTGTASKLTFGTGTRLQVTL
V domain 2: GAVVSQHPSWVICKSGTSVKIECRSLDFQATTMFWYRQFPKQSLMLMATSNEGSKATYEQGVEKDKFLINHASLTLSTLTVTSAHPEDSSFYICSAKEGTEAFFGQGTRLTVV
